Measured values as given in patent US20240288416A1 (RIJKSUNIVERSITEIT GRONINGEN, published 2024).

Target: T1, artificial PA28-nanopore
T1 construct: also called PA-nanopore; PA nanopore
Experiment: single-channel electrical recording in a planar lipid bilayer, 1 M NaCl

B1: 20S proteasome from Thermoplasma acidophilum (enzyme)
chain 1: MQQGQMAYDRAITVFSPDGRLFQVEYAREAVKKGSTALGMKFANGVLLISDKKVRSRLIEQNSIEKIQLIDDYVAAVTSGLVADARVLVDFARISAQQEKVTYGSLVNIENLVKRVADQMQQYTQYGGVRPYGVSLIFAGIDQIGPRLFDCDPAGTINEYKATAIGSGKDAVVSFLEREYKENLPEKEAVTLGIKALKSSLEEGEELKAPEIASITVGNKYRIYDQEEVKKFL
chain 2: TTTVGITLKDAVIMATERRVTMENFIMHKNGKKLFQIDTYTGMTIAGLVGDAQVLVRYMKAELELYRLQRRVNMPIEAVATLLSNMLNQVKYMPYMVQLLVGGIDTAPHVFSIDAAGGSVEDIYASTGSGSPFVYGVLESQYSEKMTVDEGVDLVIRAISAAKQRDSASGGMIDVAVITRKDGYVQLPTDQIESRIRKLGLIL
notes: also called the proteasome; T. acidophilum proteasome
B1: no binding.
